B1: M. tuberculosis sedoheptulose-7-phosphate isomerase (MtbGmhA), wild type (enzyme)
chain: MCTARTAEEIFVETIAVKTRILNDRVLLEAARAIGDRLIAGYRAGARVFMCGNGGSAADAQHFAAELTGHLIFDRPPLGAEALHANSSHLTAVANDYDYDTVFARALEGSARPGDTLFAISTSGNSMSVLRAAKTARELGVTVVAMTGESGGQLAEFADFLINVPSRDTGRIQESHIVFIHAISEHVEHALFAPRQ
notes: also called Rv0113; not shown: His6, N-terminal, kept

Legend:
[1] = biological target: T1, M. tuberculosis HddA enzyme (MtbHddA) (M. tuberculosis, UniProt O53637 1-386); assay: SPR; MtbGmhA immobilised (legend of Figure 4) on a gold surface activated by EDC-NHS; 25 °C; steady-state fit, Langmuir 1:1 model; conditions: both partners purified
T1 sequence: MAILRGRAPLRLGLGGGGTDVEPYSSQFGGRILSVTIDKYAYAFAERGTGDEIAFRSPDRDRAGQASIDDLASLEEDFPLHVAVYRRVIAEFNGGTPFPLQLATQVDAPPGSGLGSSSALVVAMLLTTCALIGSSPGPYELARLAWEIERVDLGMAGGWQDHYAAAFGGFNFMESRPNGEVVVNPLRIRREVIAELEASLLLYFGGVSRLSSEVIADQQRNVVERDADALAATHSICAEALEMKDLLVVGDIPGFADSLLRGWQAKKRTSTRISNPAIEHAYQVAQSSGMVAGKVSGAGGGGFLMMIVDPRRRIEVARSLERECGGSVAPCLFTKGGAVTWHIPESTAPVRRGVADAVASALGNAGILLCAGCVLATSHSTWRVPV

[2] = biological target: the molecule itself; assay: SEC
[3] = biological target: B1; assay: SPR; MtbGmhA immobilised (legend of Figure 4) on a gold surface activated by EDC-NHS; 25 °C; steady-state fit, Langmuir 1:1 model; conditions: both partners purified
[4] = biological target: T1, M. tuberculosis HddA enzyme (MtbHddA); assay: SPR; conditions: both partners purified

Question: What does the source list for B1?
Answer: Kd [1]: 8.45 ± 0.45 µM; stoichiometry N [2]: 4

B2: M. tuberculosis GmhB enzyme (MtbGmhB) (enzyme)
chain: MVAERAGHQWCLFLDRDGVINRQVVGDYVRNWRQFEWLPGAARALKKLRAWAPYIVVVTNQQGVGAGLMSAVDVMVIHRHLQMQLASDGVLIDGFQVCPHHRSQRCGCRKPRPGLVLDWLGRHPDSEPLLSIVVGDSLSDLELAHNVAAAAGACASVQIGGASSGGVADASFDSLWEFAVAVGHARGERG
Question: Which results are given for B2?
Answer: Kd [3]: 4.9 ± 0.11 µM; Kd [4]: 20 ± 0.95 µM

From article PMC7705670, “Structural and functional characterization of M. tuberculosis sedoheptulose- 7-phosphate isomerase, a critical enzyme involved in lipopolysaccharide biosynthetic pathway” (Scientific Reports, 2020)
